Assay results: publication PMC10277282

Biological target: MHC II (mouse (endogenous in BMDM)) (UniProt P14434)
Chain of UniProt P14434 (P14434 24-256, chain 1 of 2): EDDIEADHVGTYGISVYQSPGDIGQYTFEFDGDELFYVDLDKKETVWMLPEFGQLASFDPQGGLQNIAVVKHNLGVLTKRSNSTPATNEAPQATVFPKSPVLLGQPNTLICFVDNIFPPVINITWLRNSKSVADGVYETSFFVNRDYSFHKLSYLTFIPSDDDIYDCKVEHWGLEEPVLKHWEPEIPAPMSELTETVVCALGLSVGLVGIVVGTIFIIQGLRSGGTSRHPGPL
Chain of UniProt P14434 (P14483 28-265, chain 2 of 2, further chain): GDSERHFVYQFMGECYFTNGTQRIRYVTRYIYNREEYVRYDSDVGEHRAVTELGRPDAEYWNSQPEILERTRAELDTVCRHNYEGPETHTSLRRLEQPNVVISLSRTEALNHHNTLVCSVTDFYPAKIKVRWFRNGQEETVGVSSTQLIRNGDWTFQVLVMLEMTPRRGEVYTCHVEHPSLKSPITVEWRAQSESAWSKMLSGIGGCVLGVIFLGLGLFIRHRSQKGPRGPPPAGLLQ

- TLR4 hyperinflammation in vivo (LPS sepsis in mice); concentration of sCD4 needed for 50% inhibition: 125 nM
- TNF/IL-6 response of macrophages to LPS in vitro; concentration of sCD4 needed for 50% inhibition of TLR4 hyperinflammation: 25 nM
Substance: soluble CD4 (ectodomain of CD4, D1-D4 domains) (from UniProt P06332 27-394) (domain or fragment)
